Here are results for one substance from publication PMC12117036.

The assay has as its target rhodamine-labeled rabbit skeletal muscle actin (rabbit) (UniProt P68135).

espin (ectoplasmic specialization protein), recombinant protein, sequence (B1AK53 whole entry): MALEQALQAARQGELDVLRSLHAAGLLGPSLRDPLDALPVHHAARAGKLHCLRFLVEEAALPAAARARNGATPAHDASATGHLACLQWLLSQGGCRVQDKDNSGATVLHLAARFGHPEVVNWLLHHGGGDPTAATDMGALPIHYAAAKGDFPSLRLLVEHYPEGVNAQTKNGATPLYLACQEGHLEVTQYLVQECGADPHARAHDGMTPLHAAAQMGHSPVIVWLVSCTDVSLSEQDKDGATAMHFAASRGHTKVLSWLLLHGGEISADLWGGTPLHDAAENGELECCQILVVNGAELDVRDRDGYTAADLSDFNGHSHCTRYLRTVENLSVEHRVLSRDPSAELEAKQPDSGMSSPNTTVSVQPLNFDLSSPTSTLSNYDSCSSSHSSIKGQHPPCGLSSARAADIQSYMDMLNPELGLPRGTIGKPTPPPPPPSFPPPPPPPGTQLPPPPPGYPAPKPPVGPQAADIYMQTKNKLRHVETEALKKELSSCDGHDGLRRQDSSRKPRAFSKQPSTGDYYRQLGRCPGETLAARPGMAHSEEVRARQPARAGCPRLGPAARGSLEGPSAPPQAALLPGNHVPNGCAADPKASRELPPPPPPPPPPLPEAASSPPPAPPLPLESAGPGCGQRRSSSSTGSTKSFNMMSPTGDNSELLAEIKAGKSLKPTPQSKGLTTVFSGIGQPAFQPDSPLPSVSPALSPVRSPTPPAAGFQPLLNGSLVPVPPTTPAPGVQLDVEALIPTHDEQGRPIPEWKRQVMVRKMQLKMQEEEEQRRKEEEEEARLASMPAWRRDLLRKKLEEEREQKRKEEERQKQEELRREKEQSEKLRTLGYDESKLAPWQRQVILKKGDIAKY

Turning to “espin (ectoplasmic specialization protein), recombinant protein (from UniProt B1AK53 1-854) (natural protein)”, the minimum concentration of purified espin at which bundling of pre-polymerized rhodamine-actin filaments (3 uM) was seen by confocal imaging (Fig. 4L) worked out at 100 nM.
